{"source": "patent US20260258115A1", "about": "(MAPP BIOPHARMACEUTICAL, published 2026)", "binders": {"B1": {"name": "ADI-19469 (antibody, V domains shown)", "VH": "QVQLQESGPGLVKPSETLSLTCAVSGYSISSGYYWGWIRQPPGKGLEWIGSIYHSGSTYYNPSLKSRVTISVDTSKNQFSLKLSSVTAADTAVYYCARWTVMYYFDYWGQGTLVTVSS", "VL": "EIVMTQSPATLSLSPGERATLSCRASQSVSSYLAWYQQKPGQAPRLLIYDASNRATGIPARFSGSGSGTDFTLTISSLEPEDFAVYYCQQRSNWPTFGGGTKLEIK", "notes": "full-length IgG"}, "B2": {"name": "ADI-19473 (antibody, V domains shown)", "VH": "EVQLVESGAEVKKPGESLKISCKGSGYSFTSYWIGWVRQMPGKGLEWMGIIYPGDSDTRYSPSFQGQVTISADKSISTAYLQWSSLKASDTAMYYCARLIAAAGIDYWGQGTLVTVSS", "VL": "NFMLTQPHSVSESPGKTVTISCTRSSGSIASNYVQWYQQRPGSSPTTVIYEDNQRPSGVPDRFSGSIDSSSNSASLTISGLKTEDEADYYCQSYDSSNIWVFGGGTKVTVL", "notes": "full-length IgG"}, "B3": {"name": "ADI-19492 (antibody, V domains shown)", "VH": "QVQLVQSGAEVKKPGESLKISCKGSGYRFTSYWIGWVRQMPGKGLEWMGIIYPGDSDTRYSPSFQGQVTISADKSISTAYLQWSSLKASDTAMYYCARSGSHYAFDLWGQGTMVTVSS", "VL": "B2 VL with S28N, I49L, I99P, V108L", "notes": "full-length IgG"}, "B4": {"name": "ADI-24801 (antibody, V domains shown)", "VH": "QVQLVQSGAEVKKPGASVKVSCKASGYTFTSYGISWVRQAPGQGLEWMGWISAYNGNTNYAQKLQGRVTMTTDTSTSTAYMELRSLRSDDTAVYYCARVTARTFGGIRKGYYYGMDVWGQGTTVTVSS", "VL": "not shown", "notes": "full-length IgG; also called Ab 368"}, "B5": {"name": "ADI-19495 (antibody, V domains shown)", "VH": "QVQLQESGPGLVKPSETLSLTCTVSGGSISSYYWSWIRQPPGKGLEWIGYIYTSGSTNYNPSLKSRVTISVDTSKNQFSLKLSSVTAADTAVYYCARVGSYYDLQHWGQGTLVTVSS", "VL": "DIQLTQSPSSVSASVGDRVTITCRASQGISSWLAWYQQKPGKAPKLLIYAASSLQSGVPSRFSGSGSGTDFTLTISSLQPEDFATYYCQQANSFPLTFGGGTKVEIK"}, "B6": {"name": "ADI-19435 (antibody, V domains shown)", "VH": "QVQLQESGPGLVKPSQTLSLTCTVSGGSISSGSYYWSWIRQPAGKGLEWIGRIYTSGSTNYNPSLKSRVTISVDTSKNQFSLKLSSVTAADTAVYYCAREGRGGAFDIWGQGTLVTVSS", "VL": "SYELTQPPSVSVSPGQTARITCSADALPKQYAYWYQQKPGQAPVLVIYKDSERPSGIPERFSGSSSGTTVTLTISGVQAEDEADYYCQSADSSGTYVVFGGGTQLTVL", "notes": "full-length IgG"}, "B7": {"name": "ADI-25503 (antibody, V domains shown)", "VH": "EVQLLESGAEVKKPGSSVKVSCKASGGTFSSYAISWVRQAPGQGLEWMGGIIPIFGTANYAQKFQGRVTITADESTSTAYMELSSLRSEDTAVYYCARSRYSGSYYYYYGMDVWGQGTTVTVSS", "VL": "not shown", "notes": "full-length IgG"}, "B8": {"name": "ADI-25514 (antibody, V domains shown)", "VH": "B7 VH with L5V, E6Q", "VL": "not shown", "notes": "full-length IgG"}, "B9": {"name": "ADI-19491 (antibody, V domains shown)", "VH": "QVQLVQSGPTLVKPTQTLTLTCTFSGFSLSTSGVGVGWIRQPPGKALEWLALIYWDDDKRYSPSLKSRLTITKDTSKNQVVLTMTNMDPVDTATYYCAHRRATTVTTGYFDYWGQGTLVTVSS", "VL": "QSVLTQPPSVSGAPGQRVTISCTGSSSNIGAGYDVHWYQQLPGTAPKLLIYGNSNRPSGVPDRFSGSKSGTSASLAITGLQAEDEADYYCQSYDSSLSGHYVFGTGTKVTVL", "notes": "full-length IgG"}, "B10": {"name": "ADI-24816 (antibody, V domains shown)", "VH": "QVQLVQSGAEVKKPGASVKVSCKASGYTFTSYDINWVRQATGQGLEWMGWMNPNSGNTGYAQKFQGRVTMTRNTSISTAYMELSSLRSEDTAVYYCARGIPGYYYYGMDVWGQGTTVTVSS", "VL": "not shown", "notes": "full-length IgG"}, "B11": {"name": "ADI-19429 (antibody, V domains shown)", "VH": "EVQLQESGPGLVKPSETLSLTCTVSGGSISSSSYYWGWIRQPPGKGLEWIGSIYYSGSTYYNPSLKSRVTISVDTSKNQFSLKLSSVTAADTAVYYCARTPLYSYGRVVGFYYYGMDVWGQGTTVTVSS", "VL": "QSVLTQPPSVSGAPGQRVTISCTGSSSNIGAGYDVHWYQQLPGTAPKLLIYGNSNRPSGVPDRFSGSKSGTSASLAITGLQAEDEADYYCQSYDSSLSGWVFGGGTKLTVL"}, "B12": {"name": "ADI-24822 (antibody, V domains shown)", "VH": "QVQLVESGGGLVKPGGSLRLSCAASGFTFSSYSMNWVRQAPGKGLEWVSSISSSSSYIYYADSVKGRFTISRDNAKNSLYLQMNSLRAEDTAVYYCARDSGLGSRGDAFDIWGQGTMVTVSS", "VL": "B11 VL with W100Y, G104T, L108V", "notes": "full-length IgG"}, "B13": {"name": "ADI-24813 (antibody, V domains shown)", "VH": "EVQLLESGGGLVQPGRSLRLSCAASGFTFDDYAMHWVRQAPGKGLEWVSGISWNSGSIGYADSVKGRFTISRDNAKNSLYLQMNSLRAEDTALYYCAKDGDSSSWRDSNFDYWGQGTLVTVSS", "VL": "B11 VL with W100V", "notes": "full-length IgG"}, "B14": {"name": "ADI-24824 (antibody, V domains shown)", "VH": "QVQLQESGPGLVKPSETLSLTCTVSGGSISSYYWSWIRQPPGKGLEWIGYIYYSGSTNYNPSLKSRVTISVDTSKNQFSLKLSSVTAADTAVYYCAISLYGDYRTDAFDIWGQGTTVTVSS", "VL": "EIVLTQSPSSFSASTGDRVTITCRASQGISSYLAWYQQKPGKAPKLLIYAASTLQSGVPSRFSGSGSGTDFTLTISCLQSEDFATYYCQQYYSYPLFGGGTKVEIK"}, "B15": {"name": "ADI-19468 (antibody, V domains shown)", "VH": "EVQLVESGPGLVKPSETLSLTCTVSGGSISSSSYYWGWIRQPPGKGLEWIGSIYYSGSTYYNPSLKSRVTISVDTSKNQFSLKLSSVTAADTAVYYCARRDGYNYGWFDPWGQGTLVTVSS", "VL": "NFMLTQPHSVSESPGKTVTISCTGSSGSIASNYVQWYQQRPGSAPTTVIYEDNQRPSGVPDRFSGSIDSSSNSASLTISGLKTEDEADYYCQSYDSSNVVFGGGTKVTVL", "notes": "full-length IgG"}, "B16": {"name": "ADI-19471 (antibody, V domains shown)", "VH": "EVQLVESGGGLVQPGGSLRLSCSASGFTFSSYAMHWVRQAPGKGLEYVSAISSNGGSTYYADSVKGRFTISRDNSKNTLYLQMSSLRAEDTAVYYCVKADQGSSGWFPDYWGQGTLVTVSS", "VL": "B15 VL with G24R, A44S, V99W, V107L", "notes": "full-length IgG"}, "B17": {"name": "ADI-19474 (antibody, V domains shown)", "VH": "QVQLVQSGAEVKKPGESLKISCKGSGYSFTSYWIGWVRQMPGKGLEWMGIIYPGDSDTRYSPSFQGQVTISADKSISTAYLQWSSLKASDTAMYYCARPYSGSYYAFDIWGQGTTVTVSS", "VL": "B15 VL with G24R, A44S, V99Q, V107L", "notes": "full-length IgG"}, "B18": {"name": "ADI-24837 (antibody, V domains shown)", "VH": "QVQLQESGPGLVKPSETLSLTCTVSGGSISSYYWSWIRQPPGKGLEWIGYIYYSGSTNYNPSLKSRVTISVDTSKNQFSLKLSSVTAADTAVYYCARAIYYYDSSGYYYVGDAFDIWGQGTTVTVSS", "VL": "QSVLTQPPSVSAAPGQKVTISCSGSSSNIGNNYVSWYQQLPGTAPKLLIYENNKRPSGIPDRFSGSKSGTSATLGITGLQTGDEADYYCGTWDSSLSAGVFGGGTKLTVL"}, "B19": {"name": "ADI-24843 (antibody, V domains shown)", "VH": "EVQLVESGPGLVKPSQTLSLTCTVSGGSISSGDYYWSWIRQPPGKGLEWIGYIYYSGSTYYNPSLKSRVTISVDTSKNQFSLKLSSVTAADTAVYYCARESIVGAVDYWGQGTLVTVSS", "VL": "not shown", "notes": "full-length IgG; also called Ab 405"}, "B20": {"name": "ADI-25588 (antibody, V domains shown)", "VH": "EVQLVESGGGLVKPGGSLRLSCAASGFTFSSYSMNWVRQAPGKGLEWVSSISSSSSYIYYADSVKGRFTISRDNAKNSLYLQMNSLRAEDTAVYYCARYSSSLGAFDIWGQGTTVTVSS", "VL": "QSVLTQPPSVSGAPGQRVTISCTGSSSNIGAGYDVHWYQQLPGTAPKLLIYGNSNRPSGVPDRFSGSKSGTSASLAITGLQAEDEADYYCQSYDSSLSDVFGTGTKVTVL", "notes": "full-length IgG"}, "B21": {"name": "ADI-22767 (antibody, V domains shown)", "VH": "B20 VH with E1Q, Y99E, S100A, S101N, S102W, L103G, G104V, T114M", "VL": "B20 VL with L4V, D99Y", "notes": "full-length IgG"}, "B22": {"name": "ADI-19441 (antibody, V domains shown)", "VH": "QVQLVQSGAEVKKPGSSVKVSCKASGGTFSSYAISWVRQAPGQGLEWMGRIIPILGIANYAQKFQGRVTITADKSTSTAYMELSSLRSEDTAVYYCARGPLTGYSSSWFDPWGQGTLVTVSS", "VL": "EIVMTQSPSSLSASVGDRVTITCRASQSISSYLNWYQQKPGKAPKLLIYAASSLQSGVPSRFSGSGSGTDFTLTISSLQPEDFATYYCQQSYSTLPYTFGQGTKVEIK", "notes": "full-length IgG"}, "B23": {"name": "ADI-19444 (antibody, V domains shown)", "VH": "QVQLVQSGAEVKKPGASVKVSCKASGYTFTSYGISWVRQAPGQGLEWMGWISAYNGNTNYAQKLQGRVTMTTDTSTSTAYMELRSLRSDDTAVYYCARDEALVGATFDYWGQGTLVTVSS", "VL": "not shown", "notes": "full-length IgG"}, "B24": {"name": "ADI-24830 (antibody, V domains shown)", "VH": "QVQLVQSGAEVKKPGSSVKVSCKASGGTFSSYAISWVRQAPGQGLEWMGGIIPIFGTANYAQKFQGRVTITADESTSTAYMELSSLRSEDTAVYYCARGGSMVRGLGFDPWGQGTLVTVSS", "VL": "not shown", "notes": "full-length IgG"}, "B25": {"name": "ADI-19463 (antibody, V domains shown)", "VH": "QVQLQESGPGLVKPSQTLSLTCTVSGGSISSGDYYWSWIRQPPGKGLEWIGYIYYSGSTYYNPSLKSRVTISVDTSKNQFSLKLSSVTAADTAVYYCARDRLGIFDYWGQGTLVTVSS", "VL": "not shown", "notes": "full-length IgG"}}, "note": "Changes are numbered by the printed parent chain.", "data": [{"target": "T1, RSV postfusion F (postF), subtype A (respiratory syncytial virus subtype A, UniProt P03420 26-513)", "T1 construct": "also called Postfusion subtype A; F deltaFP", "test": "BLI", "values": [{"binder": "B1", "binding result": "no binding"}, {"binder": "B2", "binding result": "no binding"}, {"binder": "B3", "binding result": "no binding"}, {"binder": "B4", "binding result": "no binding"}, {"binder": "B5", "binding result": "no binding"}, {"binder": "B6", "binding result": "no binding"}, {"binder": "B7", "binding result": "no binding"}, {"binder": "B8", "binding result": "no binding"}, {"binder": "B9", "binding result": "no binding"}, {"binder": "B10", "binding result": "no binding"}, {"binder": "B11", "binding result": "no binding"}, {"binder": "B12", "binding result": "no binding"}, {"binder": "B13", "binding result": "no binding"}, {"binder": "B14", "binding result": "no binding"}, {"binder": "B15", "binding result": "no binding"}, {"binder": "B16", "binding result": "no binding"}, {"binder": "B17", "binding result": "no binding"}, {"binder": "B18", "binding result": "no binding"}, {"binder": "B19", "binding result": "no binding"}, {"binder": "B20", "binding result": "no binding"}, {"binder": "B21", "binding result": "no binding"}, {"binder": "B22", "binding result": "no binding"}, {"binder": "B23", "binding result": "no binding"}, {"binder": "B24", "binding result": "no binding"}, {"binder": "B25", "binding result": "no binding"}]}]}
